This series is described as follows: soluble on expression in E. coli; label from the status in PepcDB or PDB records.
On to “NGGTSKTVKFERFEDYNGPKPARAKNMVWQIIPDASTRTNALQSKSVQAIDSVPYLSIDQLKGTHTVESVQGFGLLFAMFNNDKSNPFSDLKNRQAFLYGIDMDKVIKTALLGQATAPTSFLHKEHPQYHEAKVVYSHDAEKAKALFKETGLTKLRMLCTDHDWVKKCTPLIQESLTALGIQVDFTEKKSSDVYNTIDGKPEAYDVVIAPGDPSVFGTDPDLLMRWWYSGDTWTDTRMHWKGTEAYAKLQEVLDAGLAATSESEQKNKWHEALDIISENVPLYPLLHRKAPTAWDASTLVDFKPISLTGLSFSGVGTTQ”, for which the “soluble on expression in E. coli” value is given as “not soluble”.
The same measure for “MGSDKIHHHHHHMRIGLFTDTYFPQVSGVSTSIRTLKEGLEKEGHEVYIFTTTDRNVKRFEDPTIIRLPSVPFISFTDRRVVYRGLISAYRIAKDYELDIIHTQTEFSLGLLGKLVAKALRIPVVHTYHTQYEDYVGYIAKGKLIKPSMVKYIMRTYLSDLDGVICPSRIVLNLLDGYGVKIPKQVIPTGIPVENYRREDISEETIKNLRTELGLADNDTMLLSLSRVSFEKNIQAILMHLSAVVDENPHVKLVIVGDGPYLSDLKELVHSLELENSVIFTGMVEHSQVAIYYKACDFFISASTSETQGLTYIESLASGRPIIAQSNPYLDDVISDKMFGTLYKKESDLADAILDAIAETPKMTQEAYEQKLYEISAENFSKSVYAFYLDFLISQKASVKEKVSLTIGNKDSHSTLRFVRKAVYLPKKVFTFTGRASKKVVKAPKRRISSIRDFLD”: “not soluble”; for “AIASPQDTCCPPDSWPALKVDYKPKGKLEDIGKGLKAYVVGNGPRAVIALNDVFGIESGHSKEICDAIADKGFTVVFPDVFRGKPLQVSDMSKLFDELPGWAKQFDYEPALRKDVVEVILPYLHDKLGFKSNDQIALAGFCWGAFMLFHLAGDTKLPGGPFACGVSFHPSVQIEGVFQRDPLQLIDRATCPQLLLPSAGEPDYMKEEGDAIKKLRAKPFGASCGVKTFPSMQHGWVNRGDRNDPQVVKEAQEALQLAVDFMMRHTKPKA”: “soluble”.
The same measure for “GSHGGSMKAANASSAEAYRVLSRAFRFDNEDQKLWWHSTAPMFAKMLETANYTTPCQYQYLITYKECVIPSLGCYPTNSAPRWLSILTRYGTPFELSLNCSNSIVRYTFEPINQHTGTDKDPFNTHAIWESLQHLLPLEKSIDLEWFRHFKHDLTLNSEESAFLAHNDRLVGGTIRTQNKLALDLKDGRFALKTYIYPALKAVVTGKTIHELVFGSVRRLAVREPRILPPLNMLEEYIRSRGSKSTASPRLVSCDLTSPAKSRIKIYLLEQMVSLEAMEDLWTLGGRRRDASTLEGLSLVRELWDLIQLSPGLKSYPAPYLPLGVIPDERLPLMANFTLHQNDPVPEPQVYFTTFGMNDMAVADALTTFFERRGWSEMARTYETTLKSYYPHADHDKLNYLHAYISFSYRDRTPYLSVYLQSFETGDWAVANLSESKVKCQDAACQPTALPPDLSKTGVYYSGLH”: “soluble”; for “MIEFTALDDLSLLRESVSLECKLAQGRDGKGALPDDFWPTYSAMANTDGGIVILGVRERKGQFEVAGIENPDKLRTELFNHLNNRQKVSVNLLRDEDVRAWPVEGKTLLVVEIPRARRQQRPVYLRGNPLGGHTYRRLHEGDRPLPDEDVKRMLAEQVEDSRDERILPGYGLDDLHLESLRAYRQLFANRDPSHPWNALADQAFLRQIGGWRQHRETGEAGLTLAGLLMFGQWSSITEAVPLCFLDYQERPADYATTVQWLDRIVPDGTWSGNVFDFYRRVVGKLTADIKVPFVLKGDIRQDDTPTHKALREALVNTLVHADYTGRISVLVVKEPAGFVLRNPGGLRVPAQQALQGGMSDCRNRTMQQMFLMIGLGERAGSGMSRIVHGWRDLGHELHLRESYEPHEHSVLEMFWAKGRGATLASESSEESSEESSEETGKKILHLLREEPSLTASALARRLQLTPRAIEKQLAKLKAQKRLRRIGPNKGGHWEVGELEHHHHHH”: “soluble”; for “MENRPVNIVLPKIENPILIEGYPGIGLVGHIAANFLAKELKMEVIGYVESSFIPPMSLILEGKPNPPLRFYGKDNIIIAVADIYLPPTLINEIAKEIANYLEQNKAEKVISLGGMGIGIFKDKFEVWGVGGTEEENKELQDLGVKILEYGSISGMSGKLLWEASRRGLKSYVILGETFGDRPDPRAAANVVEVLDRMLTLNVSVEPLLKEAEMIEEQLRKMHEQMEKARRSVEKQYETMYL”: “soluble”.
The same measure for “MKLIIAVVQDKDSNRLSEALVKANYRATKLASTGGFLKAGNTTFLIGTEDEHVEEVMSIIKDNCKSRDQLVAPISPMGGNADSYVPYPVEVQVGGATVFVLPVEQFEQY”: “not soluble”.
Regarding “MEKSLKNYKTLQQLFVRRLKAGVRPVDADEHTVVSPVDAVIEDMGTIRENCEMIVKGKPYSIAEMLGSVEAAQPYVNGFFFILYLSPSHYHRIHSPISGVIEKQWALGRKSYPVNRLGLKYGRRPLEKNYRLITEVTAGGKRLAIVKIGAMFVNSIELTHEGEQLVKGEEMAYFSFGSTVVLLFERGSFAPDPRIVAPMPIKVGERLGYWCEAHER”, the “soluble on expression in E. coli” value is “not soluble”.
Turning to “MSEYNPCLDCGACCGYFRVSFFWGECQSAGGVVPDDLVVQINPTRVAMIGTDAKPCRCVSLQGEIGKEVACTIYANRSSPCREFDASWEGGVHNPSCDDARAAYGLPPLTPPEANEPHWPDDGAEVALEHHHHHH”, the “soluble on expression in E. coli” value is on record as “soluble”.
The same measure for “LTDDPGSGFTTVWNAVVSELNGDPKVDDGPSSDANLSAPLTPQQRAWLNLVQPLTIVEGFALLSVPSSFVQNEIERHLRAPITDALSRRLGHQIQLGVRIAPPATDEADDTTVPPSENPATTSPDTTTDNDEIDDSAAARGDNQHSWPSYFTERPHNTDSATAGVTSLNRRYTFDTFVIGASNRFAHAAALAIAEAPARAYNPLFIWGESGLGKTHLLHAAGNYAQRLFPGMRVKYVSTEEFTNDFINSLRDDRKVAFKRSYRDVDVLLVDDIQFIEGKEGIQEEFFHTFNTLHNANKQIVISSDRPPKQLATLEDRLRTRFEWGLITDVQPPELETRIAILRKKAQMERLAVPDDVLELIASSIERNIRELEGALIRVTAFASLNKTPIDKALAEIVLRDLIADANTMQISAATIMAATAEYFDTTVEELRGPGKTRALAQSRQIAMYLCRELTDLSLPKIGQAFGRDHTTVMYAQRKILSEMAERREVFDHVKELTTRIRQRSKR”: “soluble”; for “MISTRFLRPSVSIFGFGIKSSMSSRAPPKALLQDMVVPPRQLFGPGPSNMADSIAETQSRNLLGHLHPEFVQIMADVRLGLQYVFKTDNKYTFAVSGTGHSGMECAMVNLLEPGDKFLVVEIGLWGQRAADLANRMGIEVKKITAPQGQAVPVEDIRKAIADYKPNLVFVCQGDSSTGVAQPLETIGDACREHGALFLVDTVASLGGTPFAADDLKVDCVYSATQKVLNAPPGLAPISFSDRAMEKIRNRKQRVASFYFDAIELGNYWGCDGELKRYHHTAPISTVYALRAALSAIAKEGIDESIQRHKDNAQVLYATLKKHGLEPFVVDEKLRLPCLTTVKVPEGVDWKDVAGKMMTNGTEIAGGLGATVGKIWRIGTFGINSNSTKIENVVELLSKSIGEKSK”: “not soluble”; for “MAHHHHHHMAVLIKNNEASLVDMAVQDFIKLGIDGVYTTMKTVVSFEYIFNFTSHMRNLHKYSTNFLELQINGHNKECVTNILQNLTLENIRKSTSTSIKAGFEFINTLNDDIKKKYFSENLNYMVMVTITWDIHTDNRIPSNEPFSILCYIKCLPKHSNNVQIDIMCGERKTPNIKYSNVFDVRNKMLKLKSEDSHEVVLYNEKEEITEGLTCNFFCFFNDTLYTAKDELVLKGTMREQIIQICEEVGITLKRKVST”: “not soluble”.
The same measure for “MLQGFRWSPHGFWVCQARFFNKKIRQRTHYEVLGVESTATLSEIKSAFYAQSKKVHPDNSSEESATASFLELKNAYDVLRRPADRRLYDYQLRGGGGRYPNGGQRYQYPNTAPQYDFSRDWSTYWSQNPDNSRSSREERDKSSREFMKSI”: “not soluble”; for “MDLDQLDLNPRITAAVKRGRLKSVKEILCYSGPDLQRLTGLPSHDVQCLLRAASLHLRGSRVLSALHLFQQKESFPEQHQRLSLGCPVLDQFLGGGLPLEGITGLAGCSSAGKTQLALQLCLAVQFPRQYGGLEAGAVYICTEDAFPSKRLWQLIAQQRRLRTDAPEELIEKIRFSNHIFIEHAADVPHFVVSSTFRPQPSGRSSCSRWGPHCED”: “soluble”; for “MAANGAKGRKVMRVLVVDNYDSFTYNLVQYLGELGAEPIVWRNDRFRLEEVEALDPDRILISPGPCTPFEAGLSVPLVQRYAPRYPILGVCLGHQAIGAAFGGKVVPAPVLMHGKVSPIHHDGTGVFRGLDSPFPATRYHSLAVVEVPEALVVNAWAEEAGGRTVMGFRHRDYPTHGVQFHPESYLTEAGKLILKNFLEDPWTR”: “soluble”.
Regarding “MKLDLIQSMLYNNPKPQDTKEGLSDQDFSIYMDAHTVPFSKYPSYMPAGVLGICTEGNAEIQVGLRKYVICANDILIFMPGFLVSFIKSSPTFTIDYCTFSNVLFYDVINGSIKRFPTGFHTYTQTHCVYSLSQEKAEQFSIYFRLLYNRATSPTYLFTKESITNLLKLPFLELYADYYSTVKEHKVTTLHKEEIGYFFLDLLLKHYKENKEVAFYAEKLHVSSKYLTEALTLVSGKSPKEWIIHYTLQEIYALLENPSISIQEIVQRTRFANLATLRRFFKRHTGTSLLQYRKQDLYKNNQ”, the “soluble on expression in E. coli” value was “not soluble”.
Regarding “GAMEDKVDAIREAIARNPQEIFQYVRLSQVKRDDKVLGYRVSPGKDPVLFESIGLQDGDMAVALNGLDLTDPNVMNTLFQSMNEMTEMSLTVERDGQQHDVYIQF”, the “soluble on expression in E. coli” value is reported as “soluble”.
Then “MSKGMFSASQSGFSTIEVYDLGPLNKIDLSIAKAGLEDTGGTVTFSVEQSLLDSLNNADGTSYQLLPPECYTIENATYSVSPGGDRRVTGGSLVYDPHKIYNLCGFDELKYVLPLRVSSTGTPMNSDRTATLYGFIVKEAIVRLASTGGDFVVEGGTTTSPMNLDTEISFENEWDLTTSFATKGADYVDNYNSANSTYYIPLPSDFYTLPDVTIAKGKTTGGSAISLLGETLPPGNYLLPVSLGGLSGQGDASINIDKETVANYFVIKQGGPINRDHWTVTANTEEKTGEVSAAYPHNGQTISLIDGEINTFWHSKWQGGEVAPPYEIILDMGKENSVSQLGLIARQNALTSMNLEIYAGDDGETWNLIGKYFFDGSIKTEQMVPVKACDARWIRIYIPTLGSGSSVGHLAEIYVYGTDKLEHHHHHH”, with “soluble”; and “MKLIWSEESWDDYLYWQETDKRIVKKINEIIKDTRRTPFEGKGKPEPLKHNLSGFWSRRITEEHRLVYAVTDDSLLIAACRYHYLEHHHHHH”, with “soluble”.
On to “MHKNREKNAMRREVNRADIGGKSGNKVKDCHVTIIRSLLSQIKENSLRVLLTYRKLFTINTKIAVEFIINSCIVYYKRSPHLL”, for which the “soluble on expression in E. coli” value was “not soluble”.
Then “MSLTQPFQLPHFYMPYPARLNPHLDEARAHSTRWARGMGMLEGSGIWEQSDLDAHDYGLLCAYTHPDCDGPALSLITDWYVWVFFFDDHFLETFKRTQDREGGKAYLDRLPLFMPLDLSAPVPEPENPVEAGLADLWARTVPAMSADWRKRFAVSTEHLLNESLWELSNINEGRIANPVEYIEMRRKVGGAPWSAGLVEYATAEVPAAVAGSRPLRVLMETFSDGVHLRNDLFSYQREVEEEGELSNGVLVLETFFGCTTQEAAETVNDILTSRLHQFEHTALTEVPALALEKGLTPPEVAAVAAYARGLQDWQSGGHEWHLRSSRYMNEEGHHHHHH”, with “soluble”.
Then “MGSDKIHHHHHHAVTTGNTPVTAEFAGGTLPDGNGVPNTVDPDPTKPNSNFDLLFIPREYDFGKLSISDDLTKPIPNKTDEGRAGNVESVGVGDIRGSKEGWHVTAQSTGMKLGEESLEGSITTGAMFLYPLIYNEETKTYDYQSADLADPVTKPETVDTTAFSIALGGDAVLLANATAGKGQGLWQFSFRPYLNITTPAYNIKAGAYTGNITWNLVAGPSI”, with “not soluble”.

Values taken from the DeepSol protein solubility set.
